Test results as given in PMC8727931.

B1: His-tagged GABARAP [not stated] / GST-FAM134B [not stated] (parent)
chain 1: MKFVYKEEHPFEKRRSEGEKIRKKYPDRVPVIVEKAPKARIGDLDKKKYLVPSDLTVGQFYFLIRKRIHLRAEDALFFFVNNVIPPTSATMGQLYQEHHEEDFFLYIAYSDESVYGL
chain 2: EGDDFELLDQSELDQIESELGLTQDQ

Variants of: B1
Experiment: competitive GST pull-down (gel band quantification)
Details: with GST-FAM134B; competition with MBP-LC3A H27Y in the same reaction; n = 3; read off a plot

ratio to parent	Variant
0.89	chain 1 Y25H

Same assay, conditions: with GST-FAM134B; competition with MBP-LC3A K65F in the same reaction; n = 3; read off a plot

ratio to parent	Variant
1.05	chain 1 F62K

Same assay, conditions: with GST-FAM134B; competition with MBP-LC3A H57D in the same reaction; n = 3; read off a plot

ratio to parent	Variant
1.05	chain 1 D54H

Same assay, conditions: with GST-FAM134B; competition with MBP-LC3A K30R in the same reaction; n = 3; read off a plot

ratio to parent	Variant
0.87	chain 1 R28K
